Measured values: the supplement of paper PMC10724198
± gives the standard deviation of the averaged measurements.

What was measured:
Saccharomyces cerevisiae [1] = assay: protein stability index of tFT-peptide fusion (C-terminal peptide) (PSI (0-1 scale)); higher = more stable (slower turnover)
Method: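 MPS profiling in S. cerevisiae of the tFT-X12 degron library: putative degron peptides plus stable controls, 12 aa, fused to the C-terminus of a sfGFP-mCherry timer. Cells are FACS-sorted into 8 mCherry/sfGFP bins and deep-sequenced. PSI runs from 0 (unstable) to 1 (stable). Backgrounds are wild type, das1Δ and doa10Δ at 30 °C, and wild type, das1Δ, cdc34-1 and cdc53-1 at 37 °C; 2-3 technical replicates each.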

Saccharomyces cerevisiae [2] = assay: as above; conditions: genetic background: wild type; temperature: 30 C
[3] = genetic background: cdc34-1, temperature: 37 C
[4] = genetic background: cdc53-1, temperature: 37 C
[5] = genetic background: das1 deletion, temperature: 30 C
[6] = genetic background: das1 deletion, temperature: 37 C
[7] = genetic background: doa10 deletion, temperature: 30 C
[8] = genetic background: wild type, temperature: 30 C
[9] = genetic background: wild type, temperature: 37 C
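Note: PSI is a weighted mean of sequencing reads over stability bins, variants kept only with over 10 reads, mCherry proximal and sfGFP distal, peptide attached via GGGS linker.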

Row | Sequence | protein stability index (Saccharomyces cerevisiae [1]; [3]) | protein stability index (Saccharomyces cerevisiae [1]; [4]) | protein stability index (Saccharomyces cerevisiae [1]; [5]) | protein stability index (Saccharomyces cerevisiae [1]; [6]) | protein stability index (Saccharomyces cerevisiae [1]; [7]) | protein stability index (Saccharomyces cerevisiae [1]; [8]) | protein stability index (Saccharomyces cerevisiae [1]; [9]) | protein stability index (Saccharomyces cerevisiae [2])
1 | QCSPGLPHAQGL | 0.692 ± 0.025 | 0.71 ± 0.015 | 0.634 ± 0.024 | 0.733 ± 0.014 | 0.657 ± 0.028 | 0.666 ± 0.039 | 0.708 ± 0.013 | 0.565 ± 0.15
2 | QGPHISQYRTHR | 0.67 ± 0.022 | 0.7226 ± 0.0053 | 0.6413 ± 0.0052 | 0.745 ± 0.025 | 0.676 ± 0.0068 | 0.673 ± 0.014 | 0.728 ± 0.0094 | 0.706 ± 0.0037
3 | QHRAIKIEIKIN | 0.439 ± 0.024 | 0.666 ± 0.018 | 0.571 ± 0.048 | 0.672 ± 0.02 | 0.0613 ± 0.035 | 0.0582 ± 0.013 | 0.0578 ± 0.011 | 0.091 ± 0.0089
4 | QVLISLYVHGYF | 0.551 ± 0.053 | 0.5374 ± 0.0037 | 0.453 ± 0.047 | 0.51 ± 0.017 | 0.388 ± 0.011 | 0.426 ± 0.02 | 0.519 ± 0.019 | 0.501 ± 0.008
5 | RCCWWNAQAVWR | 0.725 ± 0.043 | 0.7494 ± 0.0045 | 0.638 ± 0.029 | 0.752 ± 0.0039 | 0.655 ± 0.016 | 0.631 ± 0.032 | 0.73 ± 0.023 | 0.578 ± 0.15
6 | RCLHTSVFLIFP | 0.484 ± 0.012 | 0.488 ± 0.038 | 0.476 ± 0.038 | 0.604 ± 0.021 | 0.652 ± 0.026 | 0.488 ± 0.03 | 0.54 ± 0.008 | 0.459 ± 0.03
7 | RDASLLFHFFVC | 0.507 ± 0.059 | 0.727 ± 0.014 | 0.614 ± 0.012 | 0.726 ± 0.011 | 0.0833 ± 0.018 | 0.0965 ± 0.0056 | 0.143 ± 0.015 | 0.199 ± 0.0058
8 | REGDLLKFKMRP | 0.6854 ± 0.0054 | 0.727 ± 0.008 | 0.637 ± 0.024 | 0.716 ± 0.018 | 0.637 ± 0.037 | 0.639 ± 0.015 | 0.703 ± 0.027 | 0.725 ± 0.067
9 | RFFVRRVRVAVL | 0.786 ± 0.036 | 0.817 ± 0.019 | 0.553 ± 0.055 | 0.687 ± 0.0081 | 0.386 ± 0.025 | 0.382 ± 0.031 | 0.578 ± 0.048 | 0.406 ± 0.0052
10 | RFICMMYLVYLC | 0.142 ± 0.022 | 0.188 ± 0.023 | 0.192 ± 0.03 | 0.3 ± 0.016 | 0.0601 ± 0.035 | 0.0619 ± 0.018 | 0.073 ± 0.019 | 0.1405 ± 0.0006
11 | RFLPYLPTPLSP | 0.664 ± 0.026 | 0.7203 ± 0.0043 | 0.506 ± 0.016 | 0.5974 ± 0.0048 | 0.502 ± 0.016 | 0.513 ± 0.014 | 0.568 ± 0.011 | 0.52 ± 0.031
12 | RGAVLLPSLWVV | 0.659 ± 0.025 | 0.7044 ± 0.0028 | 0.577 ± 0.027 | 0.7355 ± 0.0068 | 0.356 ± 0.033 | 0.381 ± 0.022 | 0.551 ± 0.0061 | 0.483 ± 0.061
13 | RGCLVHSGFFIV | 0.65 ± 0.034 | 0.683 ± 0.011 | 0.62 ± 0.018 | 0.6898 ± 0.0051 | 0.212 ± 0.0034 | 0.239 ± 0.027 | 0.4987 ± 0.0029 | 0.401 ± 0.067
14 | RGGVLYVSIRCK | 0.282 ± 0.019 | 0.335 ± 0.0034 | 0.228 ± 0.032 | 0.397 ± 0.0054 | 0.186 ± 0.015 | 0.233 ± 0.037 | 0.386 ± 0.023 | 0.341 ± 0.053
15 | RIHRRLIKNKRV | 0.649 ± 0.021 | 0.7 ± 0.02 | 0.71 ± 0.036 | 0.739 ± 0.041 | 0.155 ± 0.028 | 0.156 ± 0.038 | 0.377 ± 0.023 | 0.162 ± 0.086
16 | RIVSGVVLLVFV | 0.404 ± 0.0079 | 0.469 ± 0.0074 | 0.237 ± 0.019 | 0.5234 ± 0.0034 | 0.206 ± 0.015 | 0.226 ± 0.042 | 0.527 ± 0.034 | 0.336 ± 0.035
17 | RKGQNKKRNKIY | 0.7504 ± 0.0028 | 0.767 ± 0.019 | 0.659 ± 0.008 | 0.7331 ± 0.0033 | 0.203 ± 0.028 | 0.295 ± 0.035 | 0.575 ± 0.044 | 0.399 ± 0.02
18 | RKWLFFRSWRYV | 0.476 ± 0.047 | 0.69 ± 0.012 | 0.626 ± 0.028 | 0.7486 ± 0.0024 | 0.0555 ± 0.024 | 0.0663 ± 0.011 | 0.0912 ± 0.024 | 0.134 ± 0.002
19 | RLFIIYLLNIQG | 0.37 ± 0.052 | 0.5289 ± 0.0034 | 0.311 ± 0.022 | 0.544 ± 0.022 | 0.263 ± 0.0062 | 0.305 ± 0.047 | 0.515 ± 0.022 | 0.407 ± 0.019
20 | RLFSPPVLATPS | 0.654 ± 0.012 | 0.679 ± 0.025 | 0.525 ± 0.031 | 0.696 ± 0.021 | 0.51908 ± 0.00034 | 0.534 ± 0.019 | 0.6477 ± 0.0014 | 0.0111 ± 0.016

Row | Sequence | protein stability index (Saccharomyces cerevisiae [1]; [3]) | protein stability index (Saccharomyces cerevisiae [1]; [4]) | protein stability index (Saccharomyces cerevisiae [1]; [5]) | protein stability index (Saccharomyces cerevisiae [1]; [6]) | protein stability index (Saccharomyces cerevisiae [1]; [7]) | protein stability index (Saccharomyces cerevisiae [1]; [8]) | protein stability index (Saccharomyces cerevisiae [1]; [9]) | protein stability index (Saccharomyces cerevisiae [2])
21 | RLIAVAGVVVVA | 0.541 ± 0.032 | 0.5509 ± 0.0042 | 0.425 ± 0.025 | 0.5685 ± 0.0055 | 0.3997 ± 0.00095 | 0.431 ± 0.021 | 0.547 ± 0.0055 | 0.477 ± 0.054
22 | RLLSIFKILHVG | 0.526 ± 0.0063 | 0.6593 ± 0.0037 | 0.638 ± 0.013 | 0.705 ± 0.014 | 0.0881 ± 0.028 | 0.0968 ± 0.0051 | 0.1507 ± 0.00028 | 0.188 ± 0.036
23 | RLRHPPRLSTLC | 0.635 ± 0.025 | 0.743 ± 0.00093 | 0.629 ± 0.029 | 0.73873 ± 0.00026 | 0.306 ± 0.018 | 0.338 ± 0.023 | 0.594 ± 0.069 | 0.463 ± 0.0095
24 | RLSTPFTVNHFI | 0.613 ± 0.031 | 0.732 ± 0.035 | 0.696 ± 0.031 | 0.766 ± 0.0088 | 0.155 ± 0.04 | 0.168 ± 0.044 | 0.374 ± 0.044 | 0.312 ± 0.099
25 | RLVPFMAVRVLF | 0.571 ± 0.034 | 0.6204 ± 0.0016 | 0.517 ± 0.013 | 0.6492 ± 0.0023 | 0.413 ± 0.025 | 0.41 ± 0.018 | 0.5719 ± 0.0024 | 0.487 ± 0.044
26 | RRVRVVCVIVAA | 0.286 ± 0.0078 | 0.373 ± 0.009 | 0.238 ± 0.041 | 0.4735 ± 0.0028 | 0.189 ± 0.0071 | 0.221 ± 0.03 | 0.443 ± 0.025 | 0.373 ± 0.071
27 | RSFNVGLELLVW | 0.382 ± 0.026 | 0.395 ± 0.035 | 0.295 ± 0.05 | 0.449 ± 0.0063 | 0.259 ± 0.0039 | 0.297 ± 0.046 | 0.4159 ± 0.001 | 0.398 ± 0.0062
28 | RTWFTYMSIPVW | 0.196 ± 0.012 | 0.204 ± 0.069 | 0.234 ± 0.026 | 0.341 ± 0.01 | 0.189 ± 0.023 | 0.237 ± 0.026 | 0.311 ± 0.0057 | 0.343 ± 0.024
29 | RVFGWIEVEVEG | 0.5179 ± 0.001 | 0.565 ± 0.019 | 0.403 ± 0.023 | 0.5679 ± 0.0026 | 0.346 ± 0.018 | 0.386 ± 0.054 | 0.584 ± 0.007 | 0.489 ± 0.079
30 | RVFRLDRRLQVV | 0.55 ± 0.02 | 0.633 ± 0.041 | 0.509 ± 0.018 | 0.638 ± 0.012 | 0.128 ± 0.012 | 0.154 ± 0.018 | 0.213 ± 0.005 | 0.3 ± 0.0059
31 | RVGSSLIVVYCV | 0.452 ± 0.024 | 0.461 ± 0.017 | 0.264 ± 0.034 | 0.502 ± 0.0096 | 0.207 ± 0.0045 | 0.238 ± 0.023 | 0.427 ± 0.018 | 0.337 ± 0.022
32 | RVLCLVSSLTLF | 0.549 ± 0.013 | 0.592 ± 0.0061 | 0.413 ± 0.027 | 0.612 ± 0.017 | 0.352 ± 0.0058 | 0.388 ± 0.026 | 0.5961 ± 0.00089 | 0.441 ± 0.0073
33 | RWTKMNNLIIEF | 0.693 ± 0.0083 | 0.744 ± 0.0087 | 0.667 ± 0.013 | 0.742 ± 0.042 | 0.678 ± 0.012 | 0.648 ± 0.025 | 0.699 ± 0.026 | 0.7466 ± 0.0064
34 | RWVFAGVGLFVG | 0.691 ± 0.071 | 0.732 ± 0.016 | 0.605 ± 0.0071 | 0.7241 ± 0.0046 | 0.353 ± 0.043 | 0.376 ± 0.025 | 0.598 ± 0.024 | 0.502 ± 0.028
35 | SCFDRQIFVPVC | 0.358 ± 0.0078 | 0.3925 ± 0.001 | 0.302 ± 0.033 | 0.461 ± 0.013 | 0.274 ± 0.0059 | 0.308 ± 0.032 | 0.4173 ± 0.0038 | 0.442 ± 0.013
36 | SDLQVMKLRSVC | 0.717 ± 0.048 | 0.742 ± 0.045 | 0.619 ± 0.025 | 0.714 ± 0.026 | 0.185 ± 0.007 | 0.191 ± 0.013 | 0.456 ± 0.021 | 0.398 ± 0.067
37 | SFFYFVFYYLSF | 0.161 ± 0.042 | 0.17 ± 0.019 | 0.259 ± 0.015 | 0.364 ± 0.017 | 0.253 ± 0.016 | 0.204 ± 0.033 | 0.308 ± 0.01 | 0.2916 ± 0.0027
38 | SFIFFVSCFFIF | 0.274 ± 0.043 | 0.378 ± 0.011 | 0.294 ± 0.029 | 0.451 ± 0.024 | 0.263 ± 0.0092 | 0.266 ± 0.017 | 0.416 ± 0.016 | 0.3325 ± 0.0024
39 | SFLRVRSLISCS | 0.252 ± 0.026 | 0.257 ± 0.035 | 0.223 ± 0.025 | 0.404 ± 0.021 | 0.168 ± 0.0032 | 0.204 ± 0.026 | 0.348 ± 0.013 | 0.294 ± 0.022
